Percent of parent (% capture relative to wild-type ToxR) data for 5 variants are collected here from article PMC6733452.

The labels stand for the following.
B1: unnamed (parent)
chain 1: MFGLGHNSKEISMSHIGTKFILAEKFTFDPLSNTLIDKEDSEEIIRLGSNESRILWLLAQRPNEVISRNDLHDFVWREQGFEVDDSSLTQAISTLRKMLKDSTKSPQYVKTVPKRGYQLIARVETVEEEMARESEAAHDISQPESVNEYAESSSVPSSATVVNTPQPANVVTNKSAPNLGNRLLILIAVLLPLAVLLLTNPSQTSFKPLTVVDGVAVNMPNNHPDLSNWLPSIELCVKKYNEKHTGGLKPIEVIATGGQNNQLTLNYIHSPEVSGENITLRIVANPNDAIKVCE
chain 2: MGYVRVIYQFPDNLWWNECTNQVYYAQDPMKPERLIGTPSIIQTKLLKILCEYHPAPCPNDQIIKALWPHGFISSESLTQAIKRTRDFLNDEHKTLIENVKLQGYRINIIQVIVSENVVDEADCSQKKSVKERIKIEWGKINVVPYLVFSALYVALLPVIWWSYGQWYQHELAGITHDLRDLARLPGITIQKLSEQKLTFAIDQHQCSVNYEQKTLECTKN

This assay covers variants of B1. The note with it: with partner chain of the complex shown; parent: 100; read off a plot.
chain 1 Q107A: the percent of parent (% capture relative to wild-type ToxR) is 92. Consider chain 1 S102A, for which the percent of parent (% capture relative to wild-type ToxR) came to 84. For the variant chain 1 S102A T103A Q107A V112A, the percent of parent (% capture relative to wild-type ToxR) is 63. Regarding chain 1 I120A, the percent of parent (% capture relative to wild-type ToxR) is 90. As for chain 1 K114A, the figure is 110.
